Measurements published in patent publication US20230035798A1 (CAPELLA BIOSCIENCE, published 2023).
Numbering of substitutions follows the chain as printed.

B1: 2E08 (antibody, human IgG4, V domains shown)
VH: QVQMKESGAELVRPGVSVKISCKGSGYTFTDYAIHWVKQSHAKTLEWIGVISTYYGDASYNQKFKGKATMTVDKSSSTAYMELARLTSDDSAIYYCARSRGEYGNYDAMDYWGQGTSVTVSS
VL: DIVLTQSPASLAVSLGQRATISCKASQSVDYDGDSYMNWYQQKPGQPPKLLIYAASNLESGIPARFSGSGSGTDFTLNIHPVEEEDAATYYCQQSNEDPLTFGAGTKLELK
notes: chimeric human IgG4 (S-to-P, L-to-E at 248), human CL; also called Parental 2E08
B2: 2B11 (antibody, human IgG4, V domains shown)
VH: B1 VH with Q1E, M4L, K5V, T44S, D89E
VL: DIVLTQSPASLAVSLGQRATISCRASESVDSYGNSFMHWYQQKPGQPPKLLIYRASNLESGIPARFSGSGSRTDFTLTINPVEADDVATYYCQQSNEDPYTFGGGTKLEIK
notes: chimeric human IgG4 (S-to-P, L-to-E at 248), human CL; also called Parental 2B11
B3: 3A07 (antibody, human IgG4, V domains shown)
VH: QVQLQQSGAELVRPGAPVTLSCKASDYTFTDSEIHWVKQTPVHGLEWIGEIDPETGGTAYNQKFKGKATLTADKSSSTAYMELRSLTSEDSAVYYCSRETDYFFDYWGQGTTLTVSS
VL: ENVLTQSPAIMSASPGEKVTMTCSASSSVSYMYWYQQRPGSSPRLLIYDTSNLASGVPVRFSGSGSGTSYSLTISRMEAEDAATYYCQQWSSYPLTFGSGTKLEIK
notes: chimeric human IgG4 (S-to-P, L-to-E at 248), human CL; also called Parental 3A07
B4: 3B04 (antibody, human IgG4, V domains shown)
VH: B3 VH with S7P, P17S, D26G, S32Y, I34M, G57D, N61S, L83F
VL: DIQMTQTPASLSASVGETVTITCGASENIYGALNWYQRKQGKSPQLLIYGATNLADGMSSRFSGSGSGRQYSLKISSLHPDDFATYYCQNVLTTPWTFGGGTKLEIKR
notes: chimeric: mouse variable domains on human IgG4 HC (S-to-P and L-to-E at 248) and human CL; also called Parental 3B04; 3B04 chimeric
B5: 3D12 (antibody, human IgG4, V domains shown)
VH: B3 VH with S7P, P17S
VL: B4 VL with T7S, F83V, T93S
notes: chimeric: mouse variable domains on human IgG4 HC (S-to-P and L-to-E at 248) and human CL; also called Parental 3D12; 3D12 chimeric
B6: 3C10 (antibody, human IgG4, V domains shown)
VH: B3 VH with Q1E, P17S
VL: B3 VL with E1D, N2V, L4M, S7T, R38K, S99A, I105L
notes: chimeric human IgG4 (S-to-P, L-to-E at 248), human CL; also called Parental 3C10
B7: 3E09 (antibody, V domains shown)
VH: EVQLVESGGGLVKPGGSLKLSCEASGFTFSDYYMYWVRQTPEKRLEWVAAIGDGGIYTYYADTVKGRFTISRDNAKNILYLQMSSLKSNDTAMYYCARGTGDGFAYWGQGTLVTVS
VL: B2 VL with R54L, I62V, N80D, V87A, S95N
notes: chimeric human IgG4 (S-to-P, L-to-E at 248), human CL; also called Parental 3E09

target: T1, human LIGHT (TNFSF14), full length, membrane-bound (214E allele) (human, UniProt O43557 1-240); assay: competition with biotin-LTβR-Fc, EL4-LIGHT cells, flow cytometry
T1 construct: also called membrane LIGHT; human membrane LIGHT
Description: Biotin-LTβR-Fc and biotin-HVEM-Fc were prepared using a kit purchased from ThermoFisher (EZ-Link NHS-LC-Biotin; cat. no. 21336) according to the manufacturer's instructions. […] The diluent used was FACS buffer. The cells were washed 3 times with FACS buffer and biotin-LTβR-Fc and biotin-HVEM-Fc binding detection to cells was performed with streptavidin-APC (1:400; BioLegend cat. No. 405207) for 30 min at 4° C. and fluorescence read in the RL-1 channel. The anti-HEL mAb 2A11 was utilised as a background control.
The above experiment was repeated utilising LIGHT stably expressed on EL4-cells and the results depicted in Table 11B.
Target sequence in this assay (O43557 whole entry K214E): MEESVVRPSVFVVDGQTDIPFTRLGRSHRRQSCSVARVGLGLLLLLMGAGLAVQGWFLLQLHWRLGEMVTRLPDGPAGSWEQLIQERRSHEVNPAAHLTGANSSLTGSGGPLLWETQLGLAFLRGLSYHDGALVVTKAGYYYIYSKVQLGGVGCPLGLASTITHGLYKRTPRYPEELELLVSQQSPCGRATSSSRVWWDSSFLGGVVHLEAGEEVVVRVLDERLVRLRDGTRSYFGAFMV

Row | IC50 [nM] | Binder
1 | 5.7 | B1
2 | 0.36 | B2
3 | 0.35 | B3
4 | 0.19 | B5
5 | 0.86 | B6
6 | 38 | B7

Row | Binder | IC50 [nM]
7 | B4 | 0.19

target: T1, human LIGHT (TNFSF14), full length, …; assay: DcR3-His (1 nM) competition, EL4-LIGHT, flow cytometry; 11.1 nM
Description: (§1) EL4-LIGHT cells (0.25×10⁶) were preincubated with anti-membrane LIGHT mAbs (0-300 nM) for 15 min at 4° C. followed by incubation with DcR3-His tagged (1 nM, Creative BioMart; ref: TNFRSF6B-552H, lot: 962512) for 30 min at 4° C. The samples were then incubated with mouse anti-histag antibody (diluted 1:500, Biolegend, cat. no. 652502) for 30 minutes at 4° C., followed by incubation with anti-mouse APC (dil 1:500, BDBiosciences, cat. no. 550826) for 30 minutes at 4° C. The tubes were washed three times after each of the detection antibody stages and flow cytometry analysis was performed. Specific mean fluorescence intensity (MFI) obtained from the binding of DcR3-His to LIGHT on EL4 cells were used to determine the levels of competition binding.
(§2) In humans, LIGHT is neutralized by DcR3, a unique soluble member of the TNFR superfamily, which tightly binds LIGHT (both soluble and membrane forms) and inhibits its interactions with HVEM and LTβR. A major binding determinant for DcR3 neutralization is the region T170-E178 on LIGHT (Liu et al. Structure 2014: 9; 1252-1262). […] In contrast the anti-LIGHT mAb F19, (from EP2292663) which binds both soluble LIGHT and membrane LIGHT equally well completely displaces DcR3 from binding to membrane LIGHT highlighting a surprising an important functional difference between the anti-membrane LIGHT mAbs of this invention and other neutralizing anti-LIGHT mAbs that have been raised against or screened against soluble LIGHT.

Row | DcR3-His binding, % of irrelevant mAb [%] | Binder
8 | 85.7 | B1
9 | 77.5 | B2
10 | 75.8 | B3
11 | 61.1 | B5
12 | 83.6 | B6
13 | 71.1 | B7

Row | Binder | DcR3-His binding, % of irrelevant mAb [%]
14 | B4 | 78.3

target: T1, human LIGHT (TNFSF14), full length, …; assay: flow cytometry, transiently transfected HEK293FF cells
From the text: (§3) In order to compare the cross-reactivity of the mAbs to both human and cynomolgus LIGHT, transiently transfected human or cynomolgus LIGHT-HEK293FF cells were utilised in which approximately 50% of the cells expressed LIGHT and bound mAb was detected with goat anti-human IgG FITC. The EC50 of each mAb is depicted in Table 6 after correction for background binding to untransfected cells. (Note that when the relationship between receptor occupancy and response is linear, EC50 may be equivalent or substantially equivalent to KD).
Target sequence in this assay (O43557 whole entry K214E): as above

Row | EC50 [nM] | Binder
15 | 0.3 | B1
16 | 0.4 | B2
17 | 0.1 | B3
18 | 0.2 | B5
19 | 0.2 | B6
20 | 1.3 | B7

Row | Binder | EC50 [nM]
21 | B4 | 0.2

target: T2, cynomolgus (Macaca fascicularis) LIGHT, membrane-bound (cynomolgus (Macaca fascicularis), UniProt E9NVF7 1-240); assay: as above
T2 construct: whole, on cells; also called cynomolgus membrane LIGHT; HEK293FF-cynomolgus LIGHT cells
From the text: as §3

T2 sequence (E9NVF7 entry or part of it): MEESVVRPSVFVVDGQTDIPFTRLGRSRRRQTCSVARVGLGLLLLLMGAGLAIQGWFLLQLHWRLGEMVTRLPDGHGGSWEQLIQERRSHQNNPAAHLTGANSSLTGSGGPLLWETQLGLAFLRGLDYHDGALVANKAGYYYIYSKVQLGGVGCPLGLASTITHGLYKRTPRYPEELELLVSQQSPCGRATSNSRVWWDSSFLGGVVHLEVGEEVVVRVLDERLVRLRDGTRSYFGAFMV

Row | EC50 [nM] | Binder
22 | 0.3 | B1
23 | 0.02 | B2
24 | 7.6 | B3
25 | 0.3 | B5
26 | 10.3 | B6
27 | 0.7 | B7

Row | Binder | EC50 [nM]
28 | B4 | 0.1

target: T1, human LIGHT (TNFSF14), full length, …; assay: DcR3-His (1 nM) competition, EL4-LIGHT, flow cytometry; 1.23 nM
Description: as §1, §2
Target sequence in this assay (O43557 whole entry K214E): as the sequence (O43557 whole entry K214E) above

Row | DcR3-His binding, % of irrelevant mAb [%] | Binder
29 | 118 | B1
30 | 115 | B2
31 | 90.6 | B3
32 | 72.8 | B5
33 | 95.5 | B6
34 | 66.9 | B7

Row | Binder | DcR3-His binding, % of irrelevant mAb [%]
35 | B4 | 75.1

target: membrane LIGHT without residues 81-84 (EL4-NC-LIGHT cells) (human, UniProt O43557 1-240); assay: cell-based or functional assay
Sequence (O43557 other isoform, or with tags, fused parts or gaps): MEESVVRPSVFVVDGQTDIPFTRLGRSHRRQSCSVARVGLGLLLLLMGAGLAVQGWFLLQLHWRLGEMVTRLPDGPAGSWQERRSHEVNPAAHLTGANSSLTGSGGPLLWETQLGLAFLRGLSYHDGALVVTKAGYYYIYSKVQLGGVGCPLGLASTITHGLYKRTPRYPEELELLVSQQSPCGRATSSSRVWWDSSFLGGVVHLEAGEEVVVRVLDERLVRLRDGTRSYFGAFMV

Row | IC50, inhibition of IL-8 secretion from HT-29 cells (EL4-NC-LIGHT cells) [nM] | Binder
36 | 1.8 | B1
37 | 0.6 | B2
38 | 2 | B3
39 | 0.1 | B5
40 | 1.9 | B6

Row | Binder | IC50, inhibition of IL-8 secretion from HT-29 cells (EL4-NC-LIGHT cells) [nM]
41 | B4 | 0.2

target: T1, human LIGHT (TNFSF14), full length, …; assay: DcR3-His (1 nM) competition, EL4-LIGHT, flow cytometry; 3.7 nM
Description: as §1, §2
Target sequence in this assay (O43557 whole entry K214E): as the sequence (O43557 whole entry K214E) above

Row | DcR3-His binding, % of irrelevant mAb [%] | Binder
42 | 66.1 | B1
43 | 78.6 | B2
44 | 89.6 | B3
45 | 68.6 | B5
46 | 86.9 | B6
47 | 80.4 | B7

Row | Binder | DcR3-His binding, % of irrelevant mAb [%]
48 | B4 | 78.5

target: T1, human LIGHT (TNFSF14), full length, …; assay: flow cytometry, EL4-LIGHT cells
Description: The EC50 of the 7 mAbs were calculated from binding to EL4-LIGHT cells (Table 7) which represents a more accurate comparison of the EC50's than utilising transiently transfected LIGHT cells. […] Non-linear regression analysis was performed to determine the functional binding affinity measurement or EC50 for each mAb. A range of functional affinities was observed.
Target sequence in this assay (O43557 whole entry K214E): as above

Row | EC50 [nM] | Binder
49 | 1.8 | B1
50 | 0.3 | B2
51 | 0.14 | B3
52 | 0.2 | B5
53 | 0.16 | B6
54 | 8.1 | B7

Row | Binder | EC50 [nM]
55 | B4 | 0.15

target: T1, human LIGHT (TNFSF14), full length, …; assay: DcR3-His (1 nM) competition, EL4-LIGHT, flow cytometry; 100 nM
Description: as §1, §2
Target sequence in this assay (O43557 whole entry K214E): as above

Row | DcR3-His binding, % of irrelevant mAb [%] | Binder
56 | 53.7 | B1
57 | 70.6 | B2
58 | 64.2 | B3
59 | 80.3 | B5
60 | 63.8 | B6
61 | 65 | B7

Row | Binder | DcR3-His binding, % of irrelevant mAb [%]
62 | B4 | 75.8

target: T1, human LIGHT (TNFSF14), full length, …; assay: competition with biotin-HVEM:Fc, HEK293FF LIGHT cells, flow cytometry
Description: The ability of the 7 chimeric mAbs to block biotin-HVEM:Fc and biotin-LTβR:Fc fusion proteins to cell surface expressed LIGHT using a flow cytometric based assay is shown in FIGS. 1A and 1B respectively. In these experiments, graded amounts of each antibody were added to the HEK293FF cells transiently transfected with LIGHT with a 50% saturating amount of the receptor fusion protein. As shown, each of the antibodies blocked either receptor fusion protein from binding LIGHT, in contrast to the irrelevant antibody control which had no effect on either Fc-receptor fusion protein binding. In each experiment, all antibodies blocked receptor binding in a dose dependent manner enabling analysis by non-linear regression to determine the IC50 dose as shown in Table 11A.

Row | IC50 [nM] | Binder
63 | 23.8 | B1
64 | 2.9 | B2
65 | 2.5 | B3
66 | 1 | B5
67 | 2.1 | B6
68 | 36.6 | B7

Row | Binder | IC50 [nM]
69 | B4 | 1.2
